The record followed here is the supplement of paper PMC9170038.

For this data set, the system named is MS2 coat protein. As to the kind of experiment: apparent KD of MS2 coat protein; designed switch direction (-1 OFF switch, 1 ON switch): -1; higher = weaker reporter binding. In a few lines: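 Transcription of designed RNA switches on Illumina chips was done by stalled E. coli RNA polymerase. SNAP-549-labelled MS2 coat protein was then titrated in doubling steps from 0.7 or 1.5 nM to 3 µM, with steps of 0.8–1.5 h at the lowest and 10–20 min at the highest concentration. The per-design median over clusters of curve-fitted normalised fluorescence is reported as apparent KD.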

[1] abbreviates: Eterna round: R95, input ligand: microRNA oligo, concentration not stated.
[2] abbreviates: Eterna round: R95, input ligand: FMN 200 uM.
Setting [3] is: Eterna round: R95, input ligand: none.
The mark [4] stands for this setting: input ligand: microRNA oligo, concentration not stated.

Take “AAUAACAUGUUGAUCAAAUACAUGAGGAUCACCCAUGUAUGCUUUUUGCUCGAUAAGAUCAACUAAUAAUAAUAAUA [StovNew/1-A] (Eterna round: R97, puzzle: Sensor, turn-off variant 1)”: the “apparent KD of MS2 coat protein” value turned out to be 14 nM (input ligand: FMN 200 uM) and 15.6 nM (input ligand: none).
For the sequence “AAUAACGAGCCGAUCCUCCACAUGAGGAUCACCCAUGUGUUCGUCUUGUAAAGUACUAUCACGAAAGUGAUAGUACA [mod jandersonlee] (Eterna round: R97, puzzle: Sensor, turn-off variant 1)”, the “apparent KD of MS2 coat protein” value is, setting by setting: (input ligand: FMN 200 uM) 1100 nM; (input ligand: none) 1040 nM.
In the case of “AAUAAGCAAGGAUAUACGACGCAGAGCGUCAGUGGGCGAUGACAUGAGGAUCACCCAUGUAGAAGGUGCACAUC [Veisbebi] (puzzle: Exclusion 2)”, under setting [1], the “apparent KD of MS2 coat protein” value is 81.5 nM.
Turning to “AAUAAGCUAGGAUAUACAUGAGGAUCACCCAUGUCCACGCUCUGGAGGGCUGAAUGAUGUAGAAGGAGCAGUGG [Zabier] (puzzle: Exclusion 3)”, the “apparent KD of MS2 coat protein” value is 17.2 nM under setting [2], 19.2 nM under setting [1] and 13.9 nM under setting [3].
As to “AAUAAUAAAGUCAGGAUAUCUAGAGCUGCGGCUCUAGAGAAGGGACAUGAGGAUCACCCAUGUCACUCAAUAAU [BmEx4/3-D3] (Eterna round: R97, puzzle: Brourd's mod of Exclusion 4)”, the “apparent KD of MS2 coat protein” value reads like this: (input ligand: FMN 200 uM) 18.1 nM; (input ligand: none) 14.7 nM.
Turning to “AAUAAUCAUGUAGGAUAUGCGUGGCGAAGCUAUGCAGAAGGACAUGAGGAUCACCCAUGUUCUAGCGUCUGCGUACAGAUGCUA [Mat - Exclusion NG 1 - Mod of JL - D79] (Eterna round: R96, puzzle: Exclusion NG 1)”, the “apparent KD of MS2 coat protein” value (input ligand: FMN 200 uM) is 123 nM, the “apparent KD of MS2 coat protein” value under setting [4] came to 36.6 nM and the “apparent KD of MS2 coat protein” value (input ligand: none) came to 37.1 nM.
In the case of “AAUACAAGCUAUUGAUCCCACAUGAGGAUCACCCAUGUAGGUGGCGGUGACACCUCCUUUACGAUAGCUCGUCUUAU [Sensor-V1 #54] (Eterna round: R97, puzzle: Sensor, turn-off variant 1)”, the “apparent KD of MS2 coat protein” value runs as follows: (input ligand: FMN 200 uM) 141 nM; (input ligand: none) 226 nM.
Take “AAUACUAACACGAAAGUGUUAGUAAAAUAAGCUUGUGGUACAUGAGGAUCACCCAUGUCCUCAUAAGCUCGUCUUAU [Mat - Sensor v3 - Turn-off var 2 - D43] (puzzle: Sensor v3, turn-off variant 2)”: the “apparent KD of MS2 coat protein” value worked out at 23 nM under setting [2], 75.4 nM under setting [1] and 21.4 nM under setting [3].
Take “AAUCCACAUGAGGAUCACCCAUGUCAGGAUAUCGCGCGCGCGUUUUCGGUCUCGCGCGCGAGAAGGGACGGCUG (puzzle: Exclusion 1)”: the “apparent KD of MS2 coat protein” value under setting [1] was 22 nM.
For “AAUCCACAUGAGGAUCACCCAUGUCAGGAUAUCGCGCGCGCGUUUUCGGUCUUUCGCGCGAGAAGGGACGACUG (puzzle: Exclusion 1)”, the “apparent KD of MS2 coat protein” value under setting [1] turned out to be 14.1 nM.
Consider “AAUGAUUGACGAGGAUAUUGUGGUAAAACACGACGAGAAGGCGUAUGUCACAUGAGGAUCACCCAUGUGAGCUUUGUGGAUAUA [Ex NG1 #71] (Eterna round: R96, puzzle: Exclusion NG 1)”, for which the “apparent KD of MS2 coat protein” value runs as follows: (input ligand: FMN 200 uM) 31.4 nM; under setting [4], 23.4 nM; (input ligand: none) 35.5 nM.
For the sequence “AAUGUUGAUGUGAGGAUAUACAUAGUUUGACCGUAGUAGAAGGCACAUGAGGAUCACCCAUGUAGAUGUUUGGU [JR_BME4_Sub004] (puzzle: Brourd's mod of Exclusion 4)”, under setting [1], the “apparent KD of MS2 coat protein” value was 12.5 nM.
As for “AAUUAACAUGUAGGAUAUCUGCACGUGUAGUGCAGAGAAGGACAUGAGGAUCACCCAUGUAUAGCGACUUCGGUCGCAAUAAUU [ENG1/2-B3] (Eterna round: R96, puzzle: Exclusion NG 1)”, the “apparent KD of MS2 coat protein” value by setting is: (input ligand: FMN 200 uM) 313 nM; under setting [4], 119 nM; (input ligand: none) 140 nM.
